From publication PMC9294000, “Structural basis for the simultaneous recognition of NEMO and acceptor ubiquitin by the HOIP NZF1 domain” (Scientific Reports, 2022)

B1: human NEMO (hNEMO, aa. 257–346) (domain or fragment, UniProt Q9Y6K9 257-346, looked up)
chain: GMQLEDLKQQLQQAEEALVAKQEVIDKLKEEAEQHKIVMETVPVLKAQADIYKADFQAERQAREKLAEKKELLQEQLEQLQREYSKLKAS
notes: NEMO (IKKγ), human, residues 257-346 (CoZi region with the UBAN domain); Coiled-coil homodimer in the crystal; Cloned into pGEX-6p-1; also called NEMO CoZi; NEMO coiled-coil 2/zinc finger (CoZi); source: E. coli BL21 (DE3), purified (Glutathione Sepharose 4B, on-column PreScission cleavage, Superdex 75); not shown: GST, N-terminal, cleaved
B2: GST-HOIP NZF1(a.a. 350–379) (domain or fragment, human, UniProt Q96EP0 350-379, looked up)
chain: ARGRWACQSCTFENEAAAVLCSICERPRLA
notes: HOIP, human, NZF1 domain, residues 350-379; Held on the SPR chip by anti-GST antibodies; how the uncleaved fusion was purified is not described; source: E. coli BL21 (DE3), expressed as GST-fusion protein; not shown: GST, N-terminal, kept

Experiments:
[1] = target: T1, human HOIP NZF1 (hHOIP NZF1, aa. 350–379) (human, UniProt Q96EP0 350-379); assay: crystal structure; hHOIP NZF1, hNEMO and linear di-ubiquitin purified separately, mixed in an equimolar ratio; sitting drops, 0.1 M Tris-HCl pH 8.5, 22% v/v PEG Smear Broad; 4.2 Å; heteropentameric complex; settings: both partners purified
T1 construct: HOIP, human, NZF1 domain, residues 350-379; Cloned into pGEX-6p-1; also called Npl4 zinc finger 1 domain of HOIP; source: E. coli BL21 (DE3), purified (Glutathione Sepharose 4B, on-column PreScission cleavage, Superdex 75); not shown: GST, N-terminal, cleaved
T1 chain (looked up): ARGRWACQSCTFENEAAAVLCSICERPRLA

linear diubiquitin = target: T2, linear diubiquitin (UniProt P0CG48 1-76; P0CG48 1-76); assay: as above; settings: both partners purified
T2 construct: ubiquitin, the N-terminal (distal) unit of the head-to-tail chain; its C-terminal Gly is joined to Met1 of the next ubiquitin; ubiquitin, the C-terminal (proximal) unit of the head-to-tail chain, residues 1-76 (Leu73-Gly76 not visible in the map); Two ubiquitins on one chain, expressed from pGEX-4T-1; also called linear diubiquitin chain; source: E. coli, purified (Glutathione Sepharose 4B, …)

[2] = target: the molecule itself; assay: as above
[3] = target: T3, mouse NEMO (mNEMO, a.a. 250–339, corresponding to hNEMO 257–346) (mouse, UniProt O88522 250-339); assay: SPR; Biacore S200; GST-HOIP NZF1 held on anti-GST antibodies amine-coupled to a CM5 chip, GST as control; analytes in 10 mM HEPES pH 7.4, 150 mM NaCl, 0.005% P20; mono-ubiquitin 288.0-1.1 µM, mNEMO 100.0-0.4 µM; equilibrium KD; duplicate; settings: both partners purified
T3 construct: NEMO (IKKγ), mouse, residues 250-339; Cloned into pET-28a downstream of the 6xHis tag; source: E. coli BL21 (DE3), purified (Talon beads, on-column thrombin cleavage, size-exclusion chromatography); not shown: His6, N-terminal, cleaved
T3 sequence (O88522 250-339): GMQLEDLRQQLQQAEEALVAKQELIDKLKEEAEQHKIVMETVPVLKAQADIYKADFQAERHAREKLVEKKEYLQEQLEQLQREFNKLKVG

mono-ubiquitin = target: T4, mono-ubiquitin (UniProt P0CG48 1-76); assay: as above; settings: both partners purified
T4 construct: ubiquitin (mono-ubiquitin); The methods describe neither a plasmid nor a supplier for the mono-ubiquitin

Binder	stoichiometry N [1] [NEMO chains per NZF1]	binding result (linear diubiquitin)	stoichiometry N [2]	Kd [3] [µM]	Kd (mono-ubiquitin) [µM]
B1	2	binds	2	–	–
B2	–	–	–	86.7	135
